# In US20230357354A1, “CD38-BINDING CD31 PEPTIDES AND USES THEREOF” (ENCEFA, priority 2020, published 2023):
# Biological target: recombinant His-tagged CD38 (Homo sapiens, UniProt P28907)
# Assay: Pepscan-based ELISA of His-tagged CD38 on CD31 peptide arrays
# Type: binding
# Conditions: mimic type BET (β-turn mimic, mP2 CLIPS); sample with the highest signal
# Source text: Different sets of sCD31 peptides were synthesized according to the following designs. Note that actual order of peptides on mini-cards in some was randomized. • Set #1 • Mimic type: linear • Label: LIN15 • Linear peptides of 15 consecutive amino acid residues in length, derived from the target sequence of sCD31 with an offset of […]. • Set #2 • Mimic type: single loop (mP2 CLIPS) • Label: LOOP7 • Constrained peptides of 9 amino acid residues in length. On positions 2-8 are incorporated 7 consecutive amino acid residues derived from the target sequence of sCD31 with an offset of 1.3 residues. Cys residues were inserted on positions 1 and 9 and joined by mP2 CLIPS in order to create a loop mimic. Native Cys residues, if present, were replaced by Ser residues. • Set #3 • Mimic type: single loop, (mP2 CLIPS) • Label: LOOP15 • Constrained peptides of 17 amino acid residues in length. On positions 2-16 are incorporated 15 consecutive amino acid residues derived from the target sequence of sCD31 with an offset of […]. Cys residues were inserted on positions 1 and 17 and joined by mP2 CLIPS in order to create a loop mimic. Native Cys residues, if present, were replaced by Ser residues. • Set #4 • Mimic type: β-turn peptide mimics (mP2 CLIPS) • Label: BET • β-turn peptide mimics of 22 amino acid residues in length. On positions 2-21 are incorporated 20 consecutive amino acid residues derived from the target sequence of sCD31 with an offset of 1.3 residues. Residues on positions 11 and 12 are replaced by a Pro-Gly motif in order to induce the β-turn formation. Cys residues were inserted on positions 1 and 22 and joined by mP2 CLIPS in order to stabilize the mimic. Native Cys residues, if present, were replaced by Ser residues.
# To reconstruct epitopes of sCD31, a library of peptide-based peptide mimics was synthesized using Fmoc-based solid-phase peptide synthesis. An amino functionalized polypropylene support was obtained by grafting with a hydrophilic polymer formulation, followed by reaction with t-butyloxycarbonyl-hexamethylenediamine (BocHMDA) using dicyclohexylcarbodiimide (DCC) with N-hydroxybenzotriazole (HOBt) and subsequent cleavage of the Boc-groups using trifluoroacetic acid (TFA).
# Standard Fmoc-peptide synthesis was used to synthesize peptides on the amino-functionalized solid support by custom modified JANUS liquid handling stations (Perkin Elmer).
# Synthesis of structural mimics was done using CLIPS technology. CLIPS technology allows to structure peptides into single loops, double loops, triple loops, sheet-like folds, helix-like folds, and combinations thereof. CLIPS templates are coupled to cysteine residues. The side-chains of multiple cysteines in the peptides are coupled to one or two CLIPS templates. For example, a 0.5 mM solution of the P2 CLIPS (2,6-bis(bromomethyl)pyridine) is dissolved in ammonium bicarbonate (20 mM, pH 7.8)/acetonitrile (1:3, v/v). This solution is added onto the peptide arrays. The CLIPS template binds to side-chains of two cysteines as present in the solid-phase bound peptides of the peptide-arrays (455 wells plate with 3-µL wells). The peptide arrays are gently shaken in the solution for 30 to 60 minutes while completely covered in solution.
# Finally, the peptide arrays are washed extensively with excess of H2O and sonicated in disrupt-buffer containing 1% SDS / 0.1 % 2,2′-(ethylenedioxy)diethanethiol in PBS (pH 7.2) at 70° C. for 30 minutes, followed by sonication in H2O for another 45 minutes.
# The binding of the sample (recombinant His-tagged CD38; 9 µg/mL and 20 µg/mL) to each of the synthesized peptides was tested in a pepscan-based ELISA. The peptide arrays were incubated with primary sample solution (overnight at 4° C.). […]
row,"Value (binding intensity of His-tagged CD38), BET conformational peptide array [mAU]",Substance
1,1497,10 (CMVKLKREKNPGDQNFVILEFC; Human sCD31 peptide) [compound 10]
2,943,13 (CVESSRISKVPGIVVNITELFC; Human sCD31 peptide) [compound 13]
3,739,14 (CPPANFTIQKPGTIVSQTQDFC; Human sCD31 peptide) [compound 14]
4,649,16 (CSEVLRVKVIPGVDEVQISILC; Human CD31 peptide) [compound 16]

# Same assay, conditions: mimic type LIN15; sample with the highest signal (His-tagged CD38 9 or 20 µg/mL)
row,Substance,"Value (binding intensity of His-tagged CD38), LIN15 linear peptide array [mAU]"
1,6 (NSRDQNFVILEFPVE; Human sCD31 peptide) [compound 6],1230
2,32 (QHQMLFYKDDVLFYN) [compound 32],460
3,33 (HQMLFYKDDVLFYNI) [compound 33],441
4,36 (MLFYKDDVLFYNISS) [compound 36],451
5,38 (LFYKDDVLFYNISSM) [compound 38],383
6,101 (RISKVSSIVVNITEL) [compound 101],572
7,121 (SNDPAVFKDNPTEDV) [compound 121],410
8,122 (DPAVFKDNPTEDVEY) [compound 122],402
9,123 (PAVFKDNPTEDVEYQ) [compound 123],333
10,124 (VFKDNPTEDVEYQCV) [compound 124],303
11,171 (SKEQEGEYYCTAFNR) [compound 171],454
12,172 (EQEGEYYCTAFNRAN) [compound 172],340

# Second part, the substance after the results:
row,"Value (binding intensity of His-tagged CD38), LIN15 linear peptide array [mAU]",Substance
1,355,30 (KPQHQMLFYKDDVLF) [compound 30]
2,440,74 (KREKNSRDQNFVILE) [compound 74]
3,453,75 (REKNSRDQNFVILEF) [compound 75]
4,502,77 (KNSRDQNFVILEFPV) [compound 77]
5,1021,78 (RDQNFVILEFPVEEQ) [compound 78]
6,963,80 (DQNFVILEFPVEEQD) [compound 80]
7,631,83 (NFVILEFPVEEQDRV) [compound 83]
8,168,100 (SSRISKVSSIVVNIT) [compound 100]
9,642,102 (ISKVSSIVVNITELF) [compound 102]
10,155,104 (KVSSIVVNITELFSK) [compound 104]
11,421,120 (NSNDPAVFKDNPTED) [compound 120]
12,337,168 (KQKASKEQEGEYYCT) [compound 168]
13,316,169 (QKASKEQEGEYYCTA) [compound 169]
14,400,170 (ASKEQEGEYYCTAFN) [compound 170]

# Same assay, conditions: mimic type LOOP7 (single loop, mP2 CLIPS); sample with the highest signal
row,Substance,"Value (binding intensity of His-tagged CD38), LOOP7 conformational peptide array [mAU]"
1,5 (CSTESYFIC; Human sCD31 peptide) [compound 5],668
2,175 (CLQSFADVC) [compound 175],561
3,176 (CQSFADVSC) [compound 176],413
4,180 (CYKDDVLFC) [compound 180],585
5,182 (CDDVLFYNC) [compound 182],702
6,188 (CFIPEVRIC) [compound 188],414
7,189 (CEVRIYDSC) [compound 189],642
8,190 (CVRIYDSGC) [compound 190],479
9,192 (CTAEYQVLC) [compound 192],492
10,194 (CEYQVLVEC) [compound 194],651
11,196 (CQNFVILEC) [compound 196],942
12,198 (CILEFPVEC) [compound 198],537
13,199 (CLAQEFPEC) [compound 199],412
14,201 (CQEFPEIIC) [compound 201],476
15,202 (CFPEIIIQC) [compound 202],596

# The next lines start with the values.
row,"Value (binding intensity of His-tagged CD38), LOOP7 conformational peptide array [mAU]",Substance
1,804,167 (CEDVEYQSC) [compound 167]
2,370,173 (CNLTLQSFC) [compound 173]
3,427,174 (CTLQSFADC) [compound 174]
4,390,177 (CSFADVSTC) [compound 177]
5,542,178 (CMLFYKDDC) [compound 178]
6,604,179 (CLFYKDDVC) [compound 179]
7,579,181 (CKDDVLFYC) [compound 181]
8,502,183 (CVLFYNISC) [compound 183]
9,339,184 (CKSTESYFC) [compound 184]
10,549,185 (CTESYFIPC) [compound 185]
11,400,186 (CSYFIPEVC) [compound 186]
12,523,187 (CYFIPEVRC) [compound 187]
13,395,191 (CRIYDSGTC) [compound 191]
14,508,193 (CAEYQVLVC) [compound 193]
15,628,195 (CDQNFVILC) [compound 195]
16,527,197 (CVILEFPVC) [compound 197]
17,429,200 (CAQEFPEIC) [compound 200]
18,364,203 (CSSIVVNIC) [compound 203]
19,387,204 (CSIVVNITC) [compound 204]
20,630,205 (CIVVNITEC) [compound 205]

# Same assay, conditions: mimic type LOOP15 (single loop, mP2 CLIPS); sample with the highest signal
row,"Value (binding intensity of His-tagged CD38), LOOP15 conformational peptide array [mAU]",Substance
1,1110,9 (CRDQNFVILEFPVEEQC; Human sCD31 peptide) [compound 9]
2,965,164 (CNSRDQNFVILEFPVEC) [compound 164]
